Source: patent US20210032351A1 (XDCEXPLORER SHANGHAI, published 2021)
Numbering of substitutions follows the chain as printed.

B1: Murine anti-46C4-MMAF (antibody, V domains shown)
VH: EVHLQQSVAELVRPGASVKLSCTASGFNIKNTYMHWVKQRPEQGLEWIGRIDPANGNTKYAPKFQGKATITADTSSNTAYLQLSSLTSEDTAIYYCASDFDYWGQGTTLTVSS
VL: DVLMTQTPLSLPVSLGDQVSISCRSSQSIVNSNGNTHLEWYLQKPGQSPKVLIYKVSKRFSGVPDRFSGSGSGTDFTLKISRVEAEDLGVYYCFQGSHVPYTFGGGTKLEIK
B2: Murine anti-49G12-MMAF (antibody, V domains shown)
VH: EVQLLQSGAELVKPGASVKLSCTASGFNIKDYYMHWVKQRTEQGLEWIGRIDPEDGETKYAPKFQGKATMTADTSSNTAYLQLSSLTSEDTAVYYCASSAYYGRNYWGQGTTLTVSS
VL: QIVLTQSPAIMSASPGEKVTLTCSASSSLSSSYLYWYQQKPGSSPKLWIYSTSNLASGVPARFSGSGSGTSYSLTISSMEAEDAASYFCHQWSSYPYTFGGGTKLEIK
B3: Murine anti-56F10-MMAF (antibody, V domains shown)
VH: EVQLQQSGAELVKPGASVKLSCTASGFNIKDFYMHWVKQRTEQGLEWIGRIDPEDGETKYAPKFQGKATITADTSSNTAYLQLSSLTSEDTAVYYCGCRTGGFAYWGQGTLVTVSA
VL: QIVLTQSPAIMSASPGEKVTMTCSASSSVSYLYWYQQKPGSSPSLLIYDTSNLASGVPVRFSGSGSGTSYSLTISRMEAEDAATYYCQQWSRNPWTFGGGTKLEIK
B4: Murine anti-59G3-MMAF (antibody, V domains shown)
VH: DVQLQESGPGLVKPSQSLSLTCSVTGYSITSGYYWHWIRQFPENKLEWMGYISYDGSNIYNPSLKNRISITRDTSKNQFFLKLNSVTTEDTATYYCAINSDYALDYWGQGTSVTVSS
VL: B3 VL with L32M, S44R, R92S, N93Y, P94S, W95L, G99A, I105L
B5: Murine anti-7E5-MMAF (antibody, V domains shown)
VH: EIQLQQSGPELVKPGASVKVSCKASGYSFTDYNMYWVKQSHGKSLEWIGYVDPSNGGTNYNQKFKGKATLTVDKSSSTAFMHLNSLTSEDSAVYYCARGFFDYWGQGTTLTVSS
VL: DIVMTQSPSSLTVTAGEKVTMSCKSSQSLLNSGNQKNYLTWYQQKPGQPPKLLIYWASNRESGVPDRFTGSGSGKDFTLTISSVQAEDLAVYYCQNDYRYPVTFGAGTKLELK
B6: Murine anti-75G7-MMAF (antibody, V domains shown)
VH: EVQLQQSGPELVKPGASVKIPCKASGYTFTDYNMDWVKQSHGKSLEWIGDINPNNGDTIYNQKFKGKATLTVDKSSSTAYMELRSLTSEDTAVYYCARGDYDGYYPVYYAMDYWGQGTSVTVSS
VL: ENVLTQSPAIMSASPGEKVTMTCRASSSVSSSYLHWYQQKSGASPKLWIFSTSNLAAGVPARFSGSGSGTSYSLTVSSVEAEDAATYYCQQYSGYPLTFGAGTKLELK
B7: Murine anti-63A10-MMAF (antibody, V domains shown)
VH: QVQLQQSGAELARPGASVKMSCKASGYTFISFTMHWVKQRPGQGLEWIGYINPNSGYTKYNQKFKDKATLTAGQSSSTAYMQLSSLTSEDSAVYYCTRGGGRGFAYWGQGTLVTVSA
VL: DILMTQSPSSMSVSLGDTVTITCHASQDINSNIGWLQQKPGKSFKALIYHGTNLEDGVPSRFSGSGSGADYSLTISSLESEDFADYYCVQYAQFPFTFGSGTKLEIK
B8: Murine anti-53D8-MMAF (antibody, V domains shown)
VH: B7 VH with I30T, F32Y, N54S, K63I, G73D, Q74K
VL: B7 VL with T20S, A46G
B9: Murine anti-43H6-MMAF (antibody, V domains shown)
VH: INAEYAGGPGLVKPSQSLSLTCTVTDYSITSDYAWNWIRQFPGNKLEWMGYISYSGNTNYNPSLKSRISITRDTSKNQFFLQLNSVTTEDTATYYCARLGRGFAYWGQGTLVTVSA
VL: B7 VL with T20S, K42T, A46G, T52R, A69E, Q93H, F96P, S100A, I106L
B10: Murine anti-64B11-MMAF (antibody, V domains shown)
VH: B3 VH with F32Y, S85N, T87P
VL: B7 VL with T20S, D28G, K103E
B11: Murine anti-64F1-MMAF (antibody, V domains shown)
VH: B7 VH with I30S, F32Y, V37A, N54S, G73D, Q74K, A92I, T97A
VL: B3 VL with K18R, L32M, S44R, M77V, R92S, N93Y, P94S, W95L, G99A, I105L
B12: Murine anti-43H6 (antibody, V domains shown)
VH: B9 VH
VL: B7 VL with T20S, K42T, A46G, T52R, A69E, Q93H, F96P, S100A, I106L
notes: Mouse hybridoma antibody; also called 43H6A1
B13: Humanized antibody h75G7C6-9 (antibody, human IgG1, V domains shown)
VH: QVQLVQSGAEVKKPGASVKVSCKASGYTFTDYNMDWVRQAPGQGLEWIGDINPNNADTIYNQKFKGRVTLTVDTSTSTVYMELSSLRSEDTAVYYCARGDYDGYYPVYYAMDYWGQGTTVTVSS
VL: EIVLTQSPATLSLSPGERATLSCRASSSVSSSYLHWYQQKPGQAPRLLIYSTSNLAAGIPARFSGSGSGTDFTLTISSLEPEDFAVYYCQQYSGYPLTFGGGTKVEIK
notes: Human IgG1 constant region, human kappa constant region
B14: Humanized antibody h75G7C6-13 (antibody, human IgG1, V domains shown)
VH: B13 VH with R38K, T74K
VL: B13 VL
notes: as for B13
B15: Chimeric antibody c75G7C6 (antibody, human IgG1, V domains shown)
VH: B6 VH
VL: B6 VL
notes: also called chimeric antibody 75G7

Molecular target: T1, human EGFRvIII protein on the surface of U87MG-hEGFRvIII cells (human, UniProt P00533 25-1210)
Test: cell-based or functional assay

| Binder | IC50, cell killing of U87MG-hEGFRvIII cells (CellTiter-Glo) [nM] |
| --- | --- |
| B1 | 0.15 |
| B2 | 0.02 |
| B3 | 0.15 |
| B4 | 0.06 |
| B5 | 0.02 |
| B6 | 0.27 |
| B7 | 0.01 |
| B8 | 0.04 |
| B9 | 0.01 |
| B10 | 0.04 |
| B11 | 0.01 |

Molecular target: T1, human EGFRvIII protein on the surface …
Test: FACS on U87MG-hEGFRvIII cells
Procedure: The cells are washed twice with the HBSS buffer and are counted, and then the cells are diluted with the HBSS buffer to 2×10⁶ cells/ml, added with 1% goat serum blocking solution, with the percentage being the mass percentage, and incubated on ice for 30 minutes, and then centrifugally washed twice with the HBSS buffer. The collected cells are suspended to 2×10⁶ cells/mL with an FACS buffer (HBSS+1% BSA, with the percentage being the mass percentage), added to a 96-well FACS reaction plate at 100 μL/well, then added with 100 μL/well of the purified EGFRvIII antibody (samples to be tested) obtained in example 2, and incubated on ice for 2 hours. The plate is centrifugally washed twice with the FACS buffer, added with 100 μL/well of a fluorescence (Alexa 488) labeled secondary antibody (purchased from Invitrogen), and then incubated on ice for 1 hour. The plate is centrifugally washed 3 times with the FACS buffer, added with 100 μL/well of a fixing solution [4% (v/v) paraformaldehyde] for suspending the cells, and centrifugally washed twice with the FACS buffer after 10 minutes. The cells are suspended in 100 μL of the FACS buffer, and the results are detected and analyzed by FACS (FACS Calibur, purchased from BD). Data analysis is performed by using the software (CellQuest) to obtain the mean fluorescence intensity (MFI) of the cells. Data is further analyzed by using the software (GraphPad Prism5) to perform data fitting and calculate EC50. […] A431 cells (human epidermal cell cancer cell lines) have a large amount of wild-type EGFR protein expressed on the surface thereof. […] U87MG cells (human glioma cell lines) have a small amount of wild-type EGFR protein expressed on the surface thereof, while HEB cells (human glioma cell lines) have a high level of wild-type EGFR protein expression on the surface thereof.

| Binder | EC50 [nM] |
| --- | --- |
| B12 | 4 |

Molecular target: T2, EGFR-his (purchased from Sino Biological) (UniProt P00533 25-645)
T2 construct: Bought protein; also called EGFR protein; not shown: his tag
Test: BLI (OctetRED), antibody on anti-human Fc (AHC) biosensor, EGFR-his in solution
Source text: (§1) BLI technology involves: detecting the interaction of the molecules fixed on the sensor with the molecules in the solution, which results in that the biofilm thickness is increased, and the interference spectrum curve is shifted along the direction of increased wavelength, wherein the phase shift of light waves can be detected by workstation in real time, and analyzed to quantitatively obtain the changes in the number of molecules on the sensor surface and related concentration and kinetic data.

| Binder | Kd [nM] | koff [s⁻¹] | kon [M⁻¹ s⁻¹] |
| --- | --- | --- | --- |
| B13 | 215 | 0.00435 | 20200 |
| B14 | 211 | 0.00476 | 22500 |
| B15 | 220 | 0.00362 | 16500 |

Molecular target: T3, EGFRvIII-his (purchased from Sino Biological) (UniProt P00533 25-645)
T3 construct: Bought protein; also called EGFRvIII protein; not shown: his tag
Test: BLI (OctetRED), antibody on anti-human Fc (AHC) biosensor, EGFRvIII-his in solution
Source text: as §1

| Binder | Kd [nM] | koff [s⁻¹] | kon [M⁻¹ s⁻¹] |
| --- | --- | --- | --- |
| B13 | 1.77 | 0.000175 | 98900 |
| B14 | 1.45 | 0.000181 | 125000 |
| B15 | 1.45 | 0.000132 | 91400 |
